{"source": "paper PMC6504953", "about": "“Cauliflower mosaic virus transactivator protein (TAV) can suppress nonsense-mediated decay by targeting VARICOSE, a scaffold protein of the decapping complex” (Scientific Reports, 2019)", "target": "T1, Cauliflower mosaic virus translation transactivator/viroplasmin (TAV), strain CM1841, fused to the Gal4 … (Cauliflower mosaic virus (strain CM1841), UniProt P03558 1-520)", "T1 sequence": "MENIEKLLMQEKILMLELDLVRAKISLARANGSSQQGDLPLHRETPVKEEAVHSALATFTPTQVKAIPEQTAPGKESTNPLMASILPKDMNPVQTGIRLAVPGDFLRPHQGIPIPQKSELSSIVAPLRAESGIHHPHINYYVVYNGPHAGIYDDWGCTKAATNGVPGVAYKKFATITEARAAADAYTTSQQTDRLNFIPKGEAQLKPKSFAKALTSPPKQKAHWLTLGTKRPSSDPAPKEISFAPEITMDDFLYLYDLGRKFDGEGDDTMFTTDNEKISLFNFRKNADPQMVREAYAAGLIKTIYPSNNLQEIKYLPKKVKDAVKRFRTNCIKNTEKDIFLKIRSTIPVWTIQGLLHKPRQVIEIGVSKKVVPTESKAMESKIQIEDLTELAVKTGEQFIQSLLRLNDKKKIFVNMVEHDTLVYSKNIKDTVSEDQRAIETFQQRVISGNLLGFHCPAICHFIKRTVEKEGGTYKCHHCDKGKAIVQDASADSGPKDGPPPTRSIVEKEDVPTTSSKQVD", "experiment": "cell-based or functional assay", "data": [{"binder": "VARICOSE (VCS), entire protein, fused to the Gal4 activation domain (natural protein, A. thaliana, UniProt Q9LTT8 1-1344, looked up) MASSPGNTNPHNTPPFDLGILFKPSSNPYPPPAASYPPPTGPFLHNQYDQQHYAPPGISAQPSPVTQQQQDVSSSSAATNLHPQRTLSYPTPPLNLQSPRSNHNPGTHILALLNNTNNGAPVANQEPSHQLPVVNHNEIARSFPGGSGPIRVPSCKLPKGRRLIGEHAVYDVDVRLQGEIQPQLEVTPITKYGSDPQLVVGRQIAVNKVYICYGLKGGNIRVLNINTALRSLFRGHSQRVTDMAFFAEDVDMLASVSLDGKVFVWKISEGSEGEDQPQITGKIVLALQILGEEDTKHPRVCWHCHKQEILVVSIGKHVLRIDTTKVGRGEVFSAEAPLQCPLDKLIDGVQIVGKHDGEVTDLSMCQWMTTRLVSSSVDGTIKIWQDRKAQPLVVLRPHDGHPVSSATFVTSPERPDHIILITGGPLNREMKIWVSAGEEGWLLPADAESWRCTQTLDLKSSTEPRAEEAFFNQVIALSEAGLLLLANAKRNALYAVHLDYGSSPVGTRMDYLSEFTVTMPILSFIGTNDPPEEPIVKVYCVQTLAIQQYTLDLCLCLPPPIENMGLEKSDSSVSREANLVEGMSEPSGLKPTDLPSVDSVPKPSIIVNRSESANKLSFPSAEATSQAIVPPNGEPKTSGLPSQTSGAGSAYATLPQLPLSPRLSSKLSGYHTPVEAIEPVIPHHELGGKTPSADYSVDRQMDAVGERNLDVSSVEEISRSKDSNVTPDDDVSGMRSPSAFFKHPTHLVTPSEILMGVSSAEASITTEDRRDRDANIQDVNNDPRDTEVEVKEISEARSTQNGEINDHDETENCTSENREKVFCSQVSNLSTEMARDCYPSTEGTFIPGESKAYGQPIKAGDESGVDSRGGPAKLLKGKKQKAKNSQGPGLSSTSSNVANLADSFNEQSQSLSHPMTDLLPQLLAMQETMNQVMASQKEMQRQLSNAATGPIGKESKRLEVALGRMIEKSSKSNADALWARIQEETVKNEKALRDHAQQIVNATTNFMSKELNAMFEKTIKKELAAIGPALARSVVPVIEKTVSSAITESFQRGIGDKAVNQLDKSVNIKLEATVARQIQAQFQTSGKQALQEGLRSSVESSVIPSFEKACKAMFDQIDSAFQKGIAEHTNAAQQRFDSGHSQLAHTLKESITSASSVAQALSRELAETQRNLLALAAAGANSGGSNSLVTQLSGGPLGALLEKVEAPMDPTTELSRLISERKYEESFTSALQRSDVSIVSWLCSQVDLRGLLAMNPLPLSQGVLLSLLQQLACDISKDTSRKLAWMTDVVAAINPSDQMIAVHARPIFEQVYQILHHHRNAPGSDVSAIRLIMHVINSMLMGCK", "values": [{"measurement": "GFPabc mRNA level by qRT-PCR in N. benthamiana leaves co-infiltrated with pGFPabc, pVCS and pTAV against pTAV alone", "value": 3, "unit": "fold"}]}]}
